Data as given in article PMC5217673, “The Shigella Virulence Factor IcsA Relieves N-WASP Autoinhibition by Displacing the Verprolin Homology/Cofilin/Acidic (VCA) Domain*” (The Journal of Biological Chemistry, 2016).
No end group written: not given here.

T1: IcsA passenger domain, IcsA(53–758), FLAG-tagged (Shigella flexneri, UniProt Q7BCK4 53-758)
T1 construct: IcsA (VirG) of Shigella flexneri, gene amplified from the virulence plasmid pWR100; Expressed as full-length IcsA from pETDuet-2 with IcsP; monomer by SEC-MALS; also called FLAG-IcsA; VirG; source: E. coli C43 (DE3), full-length IcsA co-expressed with IcsP; secreted passenger domain purified from medium (anti-FLAG M2 beads, SEC); not shown: FLAG, N-terminal, kept
T1 sequence: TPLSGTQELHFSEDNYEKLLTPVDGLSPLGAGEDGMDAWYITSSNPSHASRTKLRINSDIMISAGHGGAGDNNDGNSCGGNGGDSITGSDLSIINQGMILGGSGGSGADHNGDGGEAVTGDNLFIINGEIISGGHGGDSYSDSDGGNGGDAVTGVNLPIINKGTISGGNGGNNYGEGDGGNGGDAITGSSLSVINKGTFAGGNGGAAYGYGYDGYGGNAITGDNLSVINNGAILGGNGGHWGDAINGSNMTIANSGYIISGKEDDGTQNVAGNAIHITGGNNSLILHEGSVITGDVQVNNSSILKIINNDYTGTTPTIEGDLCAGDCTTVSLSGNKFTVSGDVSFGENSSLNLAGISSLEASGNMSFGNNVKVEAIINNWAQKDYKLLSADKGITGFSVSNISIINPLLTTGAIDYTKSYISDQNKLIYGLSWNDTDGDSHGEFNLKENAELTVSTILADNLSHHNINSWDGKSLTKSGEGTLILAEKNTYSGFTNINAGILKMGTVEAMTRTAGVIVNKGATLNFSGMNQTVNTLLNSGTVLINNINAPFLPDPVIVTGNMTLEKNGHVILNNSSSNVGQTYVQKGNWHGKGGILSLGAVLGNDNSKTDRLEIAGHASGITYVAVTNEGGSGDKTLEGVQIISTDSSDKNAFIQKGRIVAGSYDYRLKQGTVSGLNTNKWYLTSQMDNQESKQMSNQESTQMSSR

B1: GST-N-WASP extended GBD (residues 156–274) (domain or fragment)
chain: NLPMATVDIKNPEITTNRFYGPQVNNISHTKEKKKGKAKKKRLTKADIGTPSNFQHIGHVGWDPNTGFDLNNLDPELKNLFDMCGISEAQLKDRETSKVIYDFIEKTGGVEAVKNELRR
notes: Cloned in pGEX-6P-1 or pGEX-4T-2; also called GST-GBD; GBD alone; source: E. coli Rosetta(DE3), purified (glutathione-Sepharose, SEC)
B2: Fluorescein-labelled N-WASP VCA peptide (residues 462–481) (peptide)
peptide: fluorescein-APTSGIVGALMEVMQKRSKA
notes: also called labeled peptide; source: synthetic peptide (Genscript)
B3: GST-N-WASP WH1 + GBD (residues 30–274) (domain or fragment)
chain: LFTFLGKKCVTMSSAVVQLYAADRNCMWSKKCSGVACLVKDNPQRSYFLRIFDIKDGKLLWEQELYNNFVYNSPRGYFHTFAGDTCQVALNFANEEEAKKFRKAVTDLLGRRQRKSEKRRDPPNGPNLPMATVDIKNPEITTNRFYGPQVNNISHTKEKKKGKAKKKRLTKADIGTPSNFQHIGHVGWDPNTGFDLNNLDPELKNLFDMCGISEAQLKDRETSKVIYDFIEKTGGVEAVKNELRR
notes: N-WASP from the WH1 domain to the end of the GBD, residues 30-274; also called GST-WH1 + GBD; extended N-WASP construct; source: E. coli Rosetta(DE3), purified (glutathione-Sepharose, SEC)

Legend:
Settings in all cases: both partners purified
[1] = biological target: T1, IcsA passenger domain, IcsA(53–758), …; assay: fluorescence polarisation; competition: preformed complex of GST-GBD or GST-WH1 + GBD (5 μM) and fluorescein-VCA peptide (0.1 nM), IcsA added at 0.01–16 μM, 25 °C; one-site equilibrium model
[2] = biological target: B3; assay: fluorescence polarisation; direct binding: fluorescein-VCA peptide 2 nM, GST-GBD or GST-WH1 + GBD 0.1–200 μM, 25 °C, TBS, 1 mM DTT; one-site equilibrium model
[3] = biological target: B1; assay: as above

| Binder | Kd [1] [µM] | Kd [2] [µM] | Kd [3] [µM] |
| --- | --- | --- | --- |
| B1 | 0.32 |  |  |
| B2 |  | 52.4 | 28.8 |
| B3 | 0.05 |  |  |
